41 sequences from the nanobody polyreactivity screen of Harvey et al. (2022) can be followed below.

A short description of this data set: yeast display, Sf9 membrane polyspecificity reagent, FACS + sequencing; frameworks hold sequencing errors. The method, boiled down: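 Synthetic nanobody libraries on Saccharomyces cerevisiae BJ5465 were galactose-induced for 36–48 hours, stained 1 hour at 4 °C with 10% biotinylated, detergent-solubilized Sf9 membrane reagent and enriched on streptavidin microbeads. FACS then separated cells into low and high (top ~1%) gates by anti-HA (expression) and streptavidin (reagent binding) fluorescence. Genes were colony-PCR amplified, MiSeq 2 × 250 sequenced and CDR-length filtered. A clone's polyreactivity label is that of its gate of origin.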
Take “QVQLVESGGGLVQAGGSLRLSCAASGRIFRYYVMGWYRQAPGKETELVAAISRSGGTTYYADSVKGRFTISRDNAKNTVYLQMNSLKPEDTAVYYCAAVYGRDPGDYWGQGTQVTVSS”: the “polyreactivity (PSR sort gate)” value is recorded as “high polyreactivity”.
The same measure for “QVQLVESGGGLVQAGGSLRLSCAASGRIFSAYAMGGYRQAPGKGRELVAAISYSGGSTYYADSVKGRFTISRDNAKNTVYLQMNSLKPEDTAVYYCAASGPRWWRFGYWGQGTQVTVSS”: “low polyreactivity”; for “QVQLVESGGGLVQAGGSLRLSCAASGRIFSAYAMGWYRQAPGKERELVAAISKRGGRTYYADSVKGRFTISRDNAKNTVYLQMNSLKPEDTAVYYCNKRYHDGHELDYWGQGTQVTVSS”: “high polyreactivity”; for “QVQLVESGGGLVQAGGSLRLSCAASGRIFSAYAMGWYRQAPGKERELVAAITSVGSTKYADSVKGLFTISRDNAKNTVYLQMNSLKPEDTAVYYCAAEYTRSFYIYYRFGYWGQGTQVTVSS”: “high polyreactivity”.
The value for “QVQLVESGGGLVQAGGSLRLSCAASGRIFSAYAMGWYRQAPGKERELVAVISRRGGRTYYADSVKGRFTISRDNAKNTVYLQMNSLKPEDTAVYYCAALGRRTRLYYWGQGTQVTVSS” was “high polyreactivity”.
As to “QVQLVESGGGLVQAGGSLRLSCAASGRIFSDNAMGWYRQAPGKERELVATINYSGGSTYYADSVKGRFTISRDNAKNTVYLQMNSLKPEDTAVYYCATRIPHRINYYDYDYWGQGTQVTVSS”, the “polyreactivity (PSR sort gate)” value is recorded as “low polyreactivity”.
The same measure for “QVQLVESGGGLVQAGGSLRLSCAASGRIFSDYAMGWYRQAPGKERELVATITSGDSTNYADSVKGRFTISRDNAKNTVYLQMNSLKTEDTAVYYCNADRFADYDYWGQGTQVTVSS”: “low polyreactivity”.
Regarding “QVQLVESGGGLVQAGGSLRLSCAASGRIFSENAMGWYRQAPGKERELVAAITGNGGDTYYADSVKGRFTISRDNAKNTVYLQMNSLKPEDTAVYYCAAETGGLGGDYWGQGTQVTVSS”, the “polyreactivity (PSR sort gate)” value is “low polyreactivity”.
As for “QVQLVESGGGLVQAGGSLRLSCAASGRIFSEYAMGWYRQAPGKERELVAAISGTGGRTYYADSVKGRFTISRDNAKNTVYLQMNSLKPEDTAVYYCAARTGQGPLYNHWGQGTQVTVSS”, the “polyreactivity (PSR sort gate)” value is on record as “high polyreactivity”.
For the sequence “QVQLVESGGGLVQAGGSLRLSCAASGRIFSFNAMGWYRPAPGKERELVATISWNGDSTYADSVKGRFTISRDNAKNTVYLQMNSLKPEDTAVYYCAVDVPPWDYDYWGQGTQVTVSS”, the “polyreactivity (PSR sort gate)” value was “low polyreactivity”.
The value for “QVQLVESGGGLVQAGGSLRLSCAASGRIFSFNAMGWYRQAPGKERELVAAISWSTGSTFYADSVKGRFTISRDNAKNTVYVQMNSLKPEDTAFYYCAREYYYRRGFFLRGYWGQGTQVTVSS” was “high polyreactivity”.
“QVQLVESGGGLVQAGGSLRLSCAASGRIFSFNAMGWYRQAPGKERELVATISWNGDSTYADSVKGRFTISRDNAKNTVYLQMNSLKPEDTAVYYCAVDVPPWDYDYWGQGTQVTVSS”: the “polyreactivity (PSR sort gate)” value is recorded as “low polyreactivity”.
The value for “QVQLVESGGGLVQAGGSLRLSCAASGRIFSFYAMVWSRQAPGKERELVAAISSGGYTYYADSVKGRFTISRDNAKNTVYLQMNSLKPEDTAVYYCATGYRKLSSRYGYWGQGTQVTVSS” was “high polyreactivity”; that for “QVQLVESGGGLVQAGGSLRLSCAASGRIFSGYAMGWYRQAPGKERELVAAISQRGGSTTYADSVKGRFTISRDNAKNTVYLQMNSLKPEDTAVYYCAKRYTYPSGYDYWGQGTQVTVSS” was “low polyreactivity”.
The same measure for “QVQLVESGGGLVQAGGSLRLSCAASGRIFSHNAMGWYRQAPGKERELVASIRSSSGRTYYADSVKGRITISRDNAKNTVYLQMNSLTPEDTAVYYCAARQYSSKPYLYGYNYWGQGTQVTVSS”: “high polyreactivity”; for “QVQLVESGGGLVQAGGSLRLSCAASGRIFSKYAMGWYRQAPGKERELVAAITYSGGSTYYADSVKGRFTISRDNAKNTVYLQMNSLKPEDTAVYYCAAVHGTSYSKWFGYWGQGTQVTVSS”: “low polyreactivity”.
Turning to “QVQLVESGGGLVQAGGSLRLSCAASGRIFSKYTMGWYIQAPGKEMELVAAISGSGTSTYYADSVKGRFTISRDNAKNTVYLQMNSLKPEDTAVYYCNAVKSWGHPGRYYWGQGTQVTVSS”, the “polyreactivity (PSR sort gate)” value is recorded as “high polyreactivity”.
The value for “QVQLVESGGGLVQAGGSLRLSCAASGRIFSLNTMGWYRQAPGKERELVATITKRGGNTYYADSVKGRFTISRDNAKNTVYLQMNSLKPEDTAFYYCAVPRSITYRYGYWGQGTQVTVSS” was “high polyreactivity”; that for “QVQLVESGGGLVQAGGSLRLSCAASGRIFSLYAMGWYRQAPGKERELVADITYRGGDSTYYADSVKGRFTISRDNAKNTVYLKMNSLKPEDTAVYYCAAGQPLYQRRHSSRTYYYWGQGTQVTVSS” was “high polyreactivity”; that for “QVQLVESGGGLVQAGGSLRLSCAASGRIFSLYAMGWYRQAPGKERELVAGITWRGGSTYYADSVKGRFTISRDNAKNTVYLQMNSMKPEDTAVYYCAARPWNWRDYDYWGQGTQVTVSS” was “high polyreactivity”.
The same measure for “QVQLVESGGGLVQAGGSLRLSCAASGRIFSLYAMGWYRQAPGNERELVAAISKRGGSTYYADSVKGRFTISRDNAKNTVYLHMNSLKPEDTAVYYCATQLPFRKPWHDYWGQGTQVTVSS”: “high polyreactivity”.
For “QVQLVESGGGLVQAGGSLRLSCAASGRIFSNYAMGWYRQAPGKERELVAAITSGGNTYYADSVKGRFTISRDNAKNTVYLQMNSLKPEDTAVYYCATVFSVQGWYFGMNYWGQGSQVTVSS”, the “polyreactivity (PSR sort gate)” value is “low polyreactivity”.
The value for “QVQLVESGGGLVQAGGSLRLSCAASGRIFSPSDMGWYRQAPGKERELVAAIRSDGGRTHYADSVKGRFTISRDNAKNTVYLQMNSLKPEDTAVYYCARDNGRTITTTDTYDYWGQGTQVTVSS” was “low polyreactivity”; that for “QVQLVESGGGLVQAGGSLRLSCAASGRIFSPSDMGWYRQAPGKERELVAAIRSDGGRTHYADSVKGRFTISRDNAKNTVYLQMNTLKPEDTAVYYCARDNGRTITTTDTYDYWRQGTQVTVSS” was “low polyreactivity”; that for “QVQLVESGGGLVQAGGSLRLSCAASGRIFSQNAMGWYRQAPGKERELVAVISRGGSTNYADSVKGRFTISRDNAKNTVYLQMNSLKPEDTAVYYCAADYAYIRSVWKWFIGDYWGQGTQVTVSS” was “low polyreactivity”.
The same measure for “QVQLVESGGGLVQAGGSLRLSCAASGRIFSQYAMGWYRQAPGKERELVAAISRRTGSTYYADSVKGRFTISRDNAKNTVYLQMNSLKPEDTAVYYCAAASKPWYYYWGQGTQVTVSS”: “high polyreactivity”.
The same measure for “QVQLVESGGGLVQAGGSLRLSCAASGRIFSQYAMGWYRQAPGKERELVAAISSRGGRTYYADSVKGRFTISRDNAKNTVYLQMNSLKPEDTAVYYCAAVIRSRYSYYEYDYWGQGTQVTVSS”: “high polyreactivity”; for “QVQLVESGGGLVQAGGSLRLSCAASGRIFSRKTMGWYRQAPGKEREFVAAISQSGGRTYYADSVKGRFTISRDNAKNTVYLQMNSLKPEDTAVYYCNAQFARSSGFNYWGQGTQVTVSS”: “high polyreactivity”.
For “QVQLVESGGGLVQAGGSLRLSCAASGRIFSRNAMGWYIQAPGKERELVAAISRSGTSTYYADSVKGRFTISRDNAKYTVYLQMNSLKPEDTAVYYCAADYPAVISIRRYDYWGQGTQVTVSS”, the “polyreactivity (PSR sort gate)” value is “low polyreactivity”.
The value for “QVQLVESGGGLVQAGGSLRLSCAASGRIFSRNAMGWYRQAPGKERELVAAISRSGTSTYYADSVKGRFTISRDNAKNTVYLQMNSLKPEDTAVYYCAADYPAVISIRRYDYWGQGTQVTVSS” was “low polyreactivity”; that for “QVQLVESGGGLVQAGGSLRLSCAASGRIFSRNAMGWYRQAPGKERELVAAITSGGSTYYADSVKGRFTISRDNAKNTVYLQMNSLKPEDTAVYYCAKRLTYYSWYHLYDYWGQGTQVTVSS” was “high polyreactivity”.
“QVQLVESGGGLVQAGGSLRLSCAASGRIFSRYAMGWYRQAPGKERELVAAITQSGTSTYYADSVKGRFTISRDNAKNTVYLQMNSLKPEDTAVYYCAAAKHSWRPSYYWGGYWGQGTQVTVSS”: the “polyreactivity (PSR sort gate)” value is on record as “low polyreactivity”.
“QVQLVESGGGLVQAGGSLRLSCAASGRIFSRYAMGWYRQAPGKERELVAAITRGGSTYADSVKGRFTISRDNAKNTVYLQMNSLKPEDTAVYYCATPIYSSYYRYSSGYGYDYWGQGTQVTVSS”: the “polyreactivity (PSR sort gate)” value is listed as “high polyreactivity”.
For the sequence “QVQLVESGGGLVQAGGSLRLSCAASGRIFSRYAMGWYRQAPGKERELVATITRRGGSTSYADSVKGRFTISRDNAKNTVYLHMNSLKPEDTAVYYCAAQSFYGIYYGQQDYDYWGQGTQVTVSS”, the “polyreactivity (PSR sort gate)” value was “high polyreactivity”.
With “QVQLVESGGGLVQAGGSLRLSCAASGRIFSRYAMGWYTQAPGKERELVAAITQSGTSTYDADSVKGRFTISRDNAKNTVYLQMNSLKPEDTAVYFCNAYRQYRYDYWGQGTQVTVSS”, the “polyreactivity (PSR sort gate)” value is given as “low polyreactivity”.
The same measure for “QVQLVESGGGLVQAGGSLRLSCAASGRIFSRYGMGWYRQAPGKERELVAGISSSGGSTYYADSVKGRFTISRDNAKNTVYLQMNSLKPEDTAVYYCAADDGFYGPDLDYRGQGTQVTVSS”: “low polyreactivity”; for “QVQLVESGGGLVQAGGSLRLSCAASGRIFSRYVMGWYRQAPGKERELVAAISGRATSTYYADSVKGRFTISRDNAKNTVYLQMNSLKPEDTAVYYCATGYKTYAVTLYDYWGQGTQVTVSS”: “high polyreactivity”; for “QVQLVESGGGLVQAGGSLRLSCAASGRIFSSNAMGWYRKAPGKEREFVAAINESGGITFYADSVKGRFTISRDNAKNTVYLQLNSLIPEDTAVYYCAKRDYSPWPADGYPYDYDYWGQGTQVTVSS”: “low polyreactivity”.
The value for “QVQLVESGGGLVQAGGSLRLSCAASGRIFSSYAKGWYRQAPGKERELVAAISRGGGRTYYADSVKGRFTISRDNAKNTVYLQMNSLKPEDTAVYYCATVGRSAAYAFDYWGQGTQVTVSS” was “high polyreactivity”; that for “QVQLVESGGGLVQAGGSLRLSCAASGRIFSSYAMGWYRQAPGKERELVAAISSRGGSTYYADSVKGRFTIARDNAKNTVYLQMNSLKPEDTAVYYCARVKYSGVVYKYDYWGQGTQVTVSS” was “high polyreactivity”.
The same measure for “QVQLVESGGGLVQAGGSLRLSCAASGRIFSSYAMGWYRQAPGKERELVAAITRGGSTYYADSVKGRFTISRDNAKNTVYLQMNSLKPEDTAVYYCNAVGFYAANTFDYWGQGTQVTVSS”: “high polyreactivity”.
